Laboratory results: patent US20080248994A1 (GOVERNMENT OF THE UNITED STATES OF AMERICA AS REPRESENTED …, published 2008)

T1: hyperphosphorylated pRb (endogenous, proliferating C2C12 myoblasts, GM) (mouse, UniProt P13405 2-921, hyperphosphorylated (sites not given))
T1 construct: Endogenous protein in extracts of cells kept in growth medium
T1 sequence (looked up): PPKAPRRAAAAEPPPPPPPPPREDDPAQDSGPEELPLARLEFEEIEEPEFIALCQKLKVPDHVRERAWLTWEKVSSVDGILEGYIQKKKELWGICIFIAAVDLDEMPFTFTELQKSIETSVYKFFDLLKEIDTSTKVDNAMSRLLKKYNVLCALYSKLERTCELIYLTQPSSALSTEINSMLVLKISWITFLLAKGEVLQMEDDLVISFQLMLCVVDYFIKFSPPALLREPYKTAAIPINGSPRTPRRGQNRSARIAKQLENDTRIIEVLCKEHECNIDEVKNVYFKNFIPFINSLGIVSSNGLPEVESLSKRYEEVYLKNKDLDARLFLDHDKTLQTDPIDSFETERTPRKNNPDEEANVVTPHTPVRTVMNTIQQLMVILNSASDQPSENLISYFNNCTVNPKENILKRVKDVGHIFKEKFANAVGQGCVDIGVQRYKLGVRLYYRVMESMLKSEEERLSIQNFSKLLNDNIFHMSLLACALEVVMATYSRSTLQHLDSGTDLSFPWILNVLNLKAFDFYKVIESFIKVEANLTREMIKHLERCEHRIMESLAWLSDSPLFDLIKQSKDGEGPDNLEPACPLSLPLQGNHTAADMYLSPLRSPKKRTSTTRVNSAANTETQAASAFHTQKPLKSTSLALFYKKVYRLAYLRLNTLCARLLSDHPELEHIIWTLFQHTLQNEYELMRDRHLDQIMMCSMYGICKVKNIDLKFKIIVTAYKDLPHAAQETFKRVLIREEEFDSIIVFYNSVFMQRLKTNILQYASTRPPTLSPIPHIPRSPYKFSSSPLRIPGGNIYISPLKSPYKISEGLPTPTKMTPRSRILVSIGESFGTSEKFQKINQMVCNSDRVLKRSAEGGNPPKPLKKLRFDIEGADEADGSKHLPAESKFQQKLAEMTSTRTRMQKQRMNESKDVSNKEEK

T2: hypophosphorylated pRb (endogenous, differentiated C2C12 myotubes, DM) (mouse, UniProt P13405 2-921, hypophosphorylated (sites not given))
T2 construct: Endogenous protein in extracts of cells kept in differentiation medium for 36 hr
T2 sequence (looked up): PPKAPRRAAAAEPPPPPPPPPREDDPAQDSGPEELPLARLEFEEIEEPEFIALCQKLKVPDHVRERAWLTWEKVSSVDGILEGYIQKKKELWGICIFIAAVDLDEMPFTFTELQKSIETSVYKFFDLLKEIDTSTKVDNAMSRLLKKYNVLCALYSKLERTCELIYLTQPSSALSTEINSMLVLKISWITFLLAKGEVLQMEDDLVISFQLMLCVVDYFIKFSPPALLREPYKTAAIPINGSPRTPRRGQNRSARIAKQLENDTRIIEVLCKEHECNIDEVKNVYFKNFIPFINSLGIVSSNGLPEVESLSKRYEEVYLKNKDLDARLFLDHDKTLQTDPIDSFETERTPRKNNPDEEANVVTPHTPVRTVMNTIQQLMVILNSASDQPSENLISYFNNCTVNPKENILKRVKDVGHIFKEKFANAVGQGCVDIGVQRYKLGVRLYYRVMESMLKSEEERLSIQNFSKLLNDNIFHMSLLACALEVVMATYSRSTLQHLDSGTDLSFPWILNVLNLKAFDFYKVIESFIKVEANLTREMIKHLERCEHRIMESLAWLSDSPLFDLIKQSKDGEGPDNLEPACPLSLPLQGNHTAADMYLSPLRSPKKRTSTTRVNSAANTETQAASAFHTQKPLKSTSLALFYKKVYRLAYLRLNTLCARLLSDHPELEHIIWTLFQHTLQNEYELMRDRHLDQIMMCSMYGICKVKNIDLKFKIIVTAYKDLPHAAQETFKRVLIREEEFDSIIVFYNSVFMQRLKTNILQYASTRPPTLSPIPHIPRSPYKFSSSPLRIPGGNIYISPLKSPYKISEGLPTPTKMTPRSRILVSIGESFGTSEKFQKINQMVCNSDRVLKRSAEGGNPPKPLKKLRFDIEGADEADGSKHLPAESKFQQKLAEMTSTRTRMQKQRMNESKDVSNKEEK

T3: GST-pRb wt (UniProt P06400 379-928, limits assumed)
T3 construct: Expressed in bacteria; the whole protein is named here; also called GST-Rb (WT); GST-RB (WT); not shown: GST tag
T3 sequence (looked up): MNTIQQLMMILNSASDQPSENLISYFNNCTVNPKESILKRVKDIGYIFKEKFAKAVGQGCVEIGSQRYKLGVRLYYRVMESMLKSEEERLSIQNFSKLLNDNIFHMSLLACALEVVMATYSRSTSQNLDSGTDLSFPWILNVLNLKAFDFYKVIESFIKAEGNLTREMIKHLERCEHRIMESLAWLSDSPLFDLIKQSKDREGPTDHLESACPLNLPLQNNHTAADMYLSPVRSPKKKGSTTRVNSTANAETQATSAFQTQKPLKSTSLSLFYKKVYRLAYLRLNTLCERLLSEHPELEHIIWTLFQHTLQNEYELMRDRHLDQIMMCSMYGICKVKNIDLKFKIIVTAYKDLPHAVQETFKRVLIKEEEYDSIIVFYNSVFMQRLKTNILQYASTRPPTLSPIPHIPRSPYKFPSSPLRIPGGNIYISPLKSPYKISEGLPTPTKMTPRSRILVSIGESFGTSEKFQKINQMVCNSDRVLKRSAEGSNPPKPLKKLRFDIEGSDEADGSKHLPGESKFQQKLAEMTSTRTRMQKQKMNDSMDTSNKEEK


Key:
[1] = target: T1, hyperphosphorylated pRb (endogenous, …); assay: co-immunoprecipitation from C2C12 myoblast extracts, Western blot
[2] = target: T2, hypophosphorylated pRb (endogenous, …); assay: co-immunoprecipitation from C2C12 myotube extracts, Western blot
GST-pRb wt = target: T3, GST-pRb wt; assay: GST pull-down from extracts of transfected pRb-/- 3T3 cells, Western blot (data not shown)
Procedure: The association with MyoD was monitored at different stages of myogenic conversion (GM and DM for 36 hours) by Western blot using anti-MyoD antibodies. In FIG. 9B, pRb−/−p53±double knock out derived 3T3 cells were transfected with Flag-HDAC1 and myc-MyoD. Nuclear extracts were prepared and subsequently incubated with increasing amounts of either GST-pRbwt or GST-pRbN757F. […] The HDAC1 present in the supernatant of the GST pull-down was immunoprecipitated with anti-Flag conjugated beads, and the associated MyoD was detected by Western blot by using anti-myc antibodies. In FIG. 9C (upper panel), a graph illustrates the ability to activate MCK-luc reporter by MyoD transiently expressed in pRb−/−p53±3T3 fibroblasts, evaluated with or without the co-expression of pRb wt or pRb N757F. In the lower panel of […], levels of endogenous MHC, p21, myogenin, tubulin, and ectopically produced pRb were evaluated by Western blot in pRb−/−p53±3T3 fibroblasts after transient expression of MyoD alone or in conjunction with either pRb wt or pRb N757F. FIG. 9D is a graph illustrating the ability to activate the MCK-luc reporter by MyoD and MEF2C alone, or in combination with E12, in pRb−/−p53±double knock out derived 3T3 cells was evaluated with or without the co-expression of pRb wt or pRb N757F. […] Transcriptional activation was measured by luciferase assay. […]

Row | binding result [1] | binding result [2] | binding result (GST-pRb wt) | Binder
1 | no binding | no binding | – | MyoD (endogenous, in extracts of C2C12 cells; also endogenous MyoD of MD3 and CC42 cells) (other, mouse, UniProt P10085 1-318, looked up, Transcription factor (bHLH)) MELLSPPLRDIDLTGPDGSLCSFETADDFYDDPCFDSPDLRFFEDLDPRLVHMGALLKPEEHAHFPTAVHPGPGAREDEHVRAPSGHHQAGRCLLWACKACKRKTTNADRRKAATMRERRRLSKVNEAFETLKRCTSSNPNQRLPKVEILRNAIRYIEGLQALLRDQDAAPPGAAAFYAPGPLPPGRGSEHYSGDSDASSPRSNCSDGMMDYSGPPSGPRRQNGYDTAYYSEAARESRPGKSAAVSSLDCLSSIVERISTDSPAAPALLLADAPPESPPGPPEGASLSDTEQGTQTPSPDAAPQCPAGSNPNAIYQVL
2 | – | – | no binding | myc-MyoD (expressed from a transfected vector in pRb-/- 3T3 cells) (other, UniProt P10085 1-318, looked up, also called myc-tagged MyoD; not shown: myc tag) MELLSPPLRDIDLTGPDGSLCSFETADDFYDDPCFDSPDLRFFEDLDPRLVHMGALLKPEEHAHFPTAVHPGPGAREDEHVRAPSGHHQAGRCLLWACKACKRKTTNADRRKAATMRERRRLSKVNEAFETLKRCTSSNPNQRLPKVEILRNAIRYIEGLQALLRDQDAAPPGAAAFYAPGPLPPGRGSEHYSGDSDASSPRSNCSDGMMDYSGPPSGPRRQNGYDTAYYSEAARESRPGKSAAVSSLDCLSSIVERISTDSPAAPALLLADAPPESPPGPPEGASLSDTEQGTQTPSPDAAPQCPAGSNPNAIYQVL
